Values quoted from earlier work as cited in PMC12153800.

Biological target: FZD10 (Homo sapiens) (UniProt Q9ULW2)
Assay: NanoBiT/BRET

Sequence of FZD10 (Homo sapiens) (Q9ULW2 21-581): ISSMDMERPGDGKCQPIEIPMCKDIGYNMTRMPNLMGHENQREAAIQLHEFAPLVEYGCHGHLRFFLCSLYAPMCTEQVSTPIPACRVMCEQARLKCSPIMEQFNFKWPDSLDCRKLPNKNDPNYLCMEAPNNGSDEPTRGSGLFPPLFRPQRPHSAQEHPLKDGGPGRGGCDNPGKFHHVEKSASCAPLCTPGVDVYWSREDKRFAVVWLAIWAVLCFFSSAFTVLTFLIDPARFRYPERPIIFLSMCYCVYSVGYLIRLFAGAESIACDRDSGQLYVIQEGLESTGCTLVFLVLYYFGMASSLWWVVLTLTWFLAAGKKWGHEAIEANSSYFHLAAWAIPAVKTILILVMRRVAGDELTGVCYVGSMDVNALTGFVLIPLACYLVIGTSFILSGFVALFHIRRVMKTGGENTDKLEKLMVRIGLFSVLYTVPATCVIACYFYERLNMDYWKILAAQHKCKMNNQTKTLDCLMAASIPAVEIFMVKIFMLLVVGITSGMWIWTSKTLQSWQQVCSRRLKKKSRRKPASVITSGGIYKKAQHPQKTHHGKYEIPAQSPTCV
Sequence of Wnt3a (P56704 19-352): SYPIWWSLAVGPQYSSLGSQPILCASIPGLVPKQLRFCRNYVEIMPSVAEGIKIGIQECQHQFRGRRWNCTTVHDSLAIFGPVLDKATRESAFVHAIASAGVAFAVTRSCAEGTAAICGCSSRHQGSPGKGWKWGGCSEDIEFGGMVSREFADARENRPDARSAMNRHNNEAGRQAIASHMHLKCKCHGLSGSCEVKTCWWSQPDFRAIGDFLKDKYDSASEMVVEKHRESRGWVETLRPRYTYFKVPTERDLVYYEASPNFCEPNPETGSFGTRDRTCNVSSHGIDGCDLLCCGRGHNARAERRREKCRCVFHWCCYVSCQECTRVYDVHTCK

Kd: 4.3 nM
Substance: Wnt3a (from UniProt P56704)
